Assay results taken from US20250320281A1.

Tests used:
Assay in all cases: cell-based or functional assay
[1] = target: HIV-1 MGRM-C-028 Env (pseudovirus, clade C) (HIV-1)
[2] = target: HIV-1 Env of pseudovirus MGRM-AE-001 (clade CRF01_AE) (HIV-1)
[3] = target: HIV-1 Env of isolate MGRM-D-008 (clade D pseudovirus) (HIV-1)
[4] = target: HIV-1 Env of isolate LAVIC_18 (HIV-1)
[5] = target: HIV-1 Env of pseudovirus MGRM-F1-020 (HIV-1)
[6] = target: HIV-1 Env of isolate MGRM-G-015 (HIV-1)
[7] = target: HIV-1 Env of isolate 93TH305 (HIV-1)
[8] = target: HIV-1 Env of isolate MGRM-D-028 (clade D pseudovirus) (HIV-1)
[9] = target: HIV-1 Env of isolate THR0.18 (Acute), clade B, on pseudovirus (HIV-1)
[10] = target: HIV-1 Env of isolate 92TH021 (clade AE), on pseudovirus (HIV-1)
[11] = target: HIV-1 Env of isolate VLGCA1 (clade A pseudovirus) (HIV-1)
[12] = target: HIV-1 Env of isolate MGRM-D-026 (clade D pseudovirus) (HIV-1)
[13] = target: HIV-1 Env of pseudovirus MGRM-G-019 (HIV-1, clade G isolate MGRM-G-019)
[14] = target: HIV-1 envelope glycoprotein (Env) of isolate MGRM-A-012, clade A (HIV-1)
[15] = target: HIV-1 Env of isolate MGRM-G-024 (HIV-1)
[16] = target: HIV-1 Env of isolate SC422661.8 (Acute), clade B, on pseudovirus (HIV-1)
[17] = target: HIV-1 Env of isolate 92UG001 (clade D pseudovirus) (HIV-1)
[18] = target: HIV-1 Env of pseudovirus MGRM-AE-004 (clade CRF01_AE) (HIV-1)
[19] = target: HIV-1 Env of isolate MGRM-D-008 (pseudovirus) (HIV-1)
[20] = target: HIV-1 Env of isolate MGRM-F1-017 (HIV-1)
[21] = target: HIV-1 Env of isolate MGRM-F1-015 (HIV-1)
[22] = target: HIV-1 Env of isolate MGRM-D-011 (pseudovirus) (HIV-1)
[23] = target: HIV-1 Env of isolate MGRM-D-012 (pseudovirus) (HIV-1)
[24] = target: HIV-1 Env of isolate MGRM-AE-006 (HIV-1)
[25] = target: aMLV envelope, on pseudovirus (negative control virus)
[26] = target: HIV-1 Env of isolate MGRM-F1-023 (HIV-1)
[27] = target: HIV-1 Env of isolate MGRM-D-013 (pseudovirus) (HIV-1)
[28] = target: HIV-1 APV13 Env (pseudovirus, clade B) (HIV-1)
[29] = target: HIV-1 NL43 envelope glycoprotein (Env) on pseudovirus (HIV-1)
[30] = target: HIV-1 Env of isolate MGRM-AG-005 (clade AG), on pseudovirus (HIV-1)
[31] = target: HIV-1 Env of pseudovirus isolate MGRM-G-025 (HIV-1)
[32] = target: HIV-1 Env of isolate MGRM-AE-006 (subtype AE) (HIV-1)
[33] = target: HIV-1 Env of isolate MGRM-G-025 (HIV-1)

Sequence of 4995_E20 (PGT-142) (antibody) (VH): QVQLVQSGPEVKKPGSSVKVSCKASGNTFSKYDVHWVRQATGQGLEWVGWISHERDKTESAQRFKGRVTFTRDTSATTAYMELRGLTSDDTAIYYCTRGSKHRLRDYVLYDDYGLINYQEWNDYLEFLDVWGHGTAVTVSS
Sequence of 4995_E20 (PGT-142) (antibody) (VL): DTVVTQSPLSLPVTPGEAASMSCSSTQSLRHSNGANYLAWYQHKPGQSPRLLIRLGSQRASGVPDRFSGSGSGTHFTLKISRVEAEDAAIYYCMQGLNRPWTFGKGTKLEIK
Sequence of 4970_K22 (PGT-144) (antibody) (VH): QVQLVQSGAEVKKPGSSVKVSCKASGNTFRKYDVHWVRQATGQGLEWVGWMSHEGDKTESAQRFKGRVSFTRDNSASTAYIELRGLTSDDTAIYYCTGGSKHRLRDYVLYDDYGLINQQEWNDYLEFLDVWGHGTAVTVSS
Sequence of 4970_K22 (PGT-144) (antibody) (VL): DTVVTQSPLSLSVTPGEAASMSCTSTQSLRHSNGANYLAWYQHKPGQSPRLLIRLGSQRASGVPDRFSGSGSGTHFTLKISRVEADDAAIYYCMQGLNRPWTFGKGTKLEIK
Sequence of 4993_K13 (PGT-141) (antibody) (VH): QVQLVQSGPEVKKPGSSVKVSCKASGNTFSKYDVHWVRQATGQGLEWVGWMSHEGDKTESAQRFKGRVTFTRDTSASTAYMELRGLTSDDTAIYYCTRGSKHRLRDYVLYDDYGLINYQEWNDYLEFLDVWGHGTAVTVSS
Sequence of 4980_N08 (PGT-143) (antibody) (VH): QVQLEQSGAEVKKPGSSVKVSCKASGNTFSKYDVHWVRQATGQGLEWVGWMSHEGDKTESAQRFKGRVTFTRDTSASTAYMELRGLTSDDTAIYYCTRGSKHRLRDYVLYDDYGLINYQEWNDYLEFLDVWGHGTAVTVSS
Sequence of 4980_N08 (PGT-143) (antibody) (VL): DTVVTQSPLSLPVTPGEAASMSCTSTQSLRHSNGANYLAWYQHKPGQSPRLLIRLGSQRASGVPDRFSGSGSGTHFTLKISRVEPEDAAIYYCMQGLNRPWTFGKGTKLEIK

With 1496_C09 (PG9) (TCN-109) (antibody) the IC50 neutralization [1] was 0.121 µg/mL, the IC50 [2] was 2.97 µg/mL and the IC50 (µg/ml), pseudovirus neutralization [3] was 6.86 µg/mL. It also gave an IC50 [4] of 0.1 µg/mL, an IC50 (µg/ml), pseudovirus neutralization [5] of 4.55 µg/mL and an IC50 (µg/mL), pseudovirus neutralization [6] of 6.6 µg/mL. The IC50 (µg/mL), pseudovirus neutralization [7] was 8.12 µg/mL, the IC50 (µg/ml), pseudovirus neutralization [8] was 4.39 µg/mL and the IC50 (µg/ml), pseudovirus neutralization [9] was 12.4 µg/mL. It also gave an IC50, pseudovirus neutralization [10] of 0.103 µg/mL, an IC50 (µg/ml), pseudovirus neutralization [11] of 0.07 µg/mL and an IC50 (µg/ml), pseudovirus neutralization [12] of 17.5 µg/mL. For the same substance, the IC50 (µg/ml), pseudovirus neutralization [13] was 0.67 µg/mL, the IC50 (µg/ml), pseudovirus neutralization [14] was 11.2 µg/mL and the IC50 (µg/mL), pseudovirus neutralization [15] was 0.163 µg/mL. The IC50 (µg/ml), pseudovirus neutralization [16] was 0.79 µg/mL, the IC50 (µg/ml), pseudovirus neutralization [17] was 41.8 µg/mL and the IC50 [18] was 0.01 µg/mL.
4838_L06 (PGT-121) (antibody) was tested, and the IC50, pseudovirus neutralization [19] was over 50 µg/mL, the IC50 (µg/mL), pseudovirus neutralization [20] was 16.9 µg/mL and the IC50 (µg/mL), pseudovirus neutralization [21] was 28.4 µg/mL. The IC50, pseudovirus neutralization [22] was 0.018 µg/mL, the IC50, pseudovirus neutralization [23] was over 50 µg/mL and the IC50 [24] was over 50 µg/mL. The IC50, pseudovirus neutralization [10] was over 10 µg/mL, the IC50, pseudovirus neutralization [25] was over 10 µg/mL and the IC50 (µg/mL), pseudovirus neutralization [26] was 0.097 µg/mL. The IC50, pseudovirus neutralization [27] was over 50 µg/mL.
Work on 4858_P08 (PGT-123) (antibody) yielded an IC50 neutralization [1] of 0.443 µg/mL, an IC50 neutralization [28] of 0.222 µg/mL and an IC50, pseudovirus neutralization [19] of over 50 µg/mL. For the same substance, the IC50 (µg/mL), pseudovirus neutralization [20] was over 50 µg/mL, the neutralization IC50 [29] was over 10 µg/mL and the neutralization IC80 [29] was over 10 µg/mL. It also gave a neutralization IC90 [29] of over 10 µg/mL, a neutralization IC95 [29] of over 10 µg/mL and an IC50 (µg/mL), pseudovirus neutralization [21] of over 50 µg/mL. For the same substance, the IC50, pseudovirus neutralization [22] was 0.012 µg/mL, the IC50, pseudovirus neutralization [23] was over 50 µg/mL and the IC50 [24] was over 50 µg/mL. For the same substance, the IC50, pseudovirus neutralization [10] was over 10 µg/mL, the IC50, pseudovirus neutralization [25] was over 10 µg/mL and the IC50 (µg/mL), pseudovirus neutralization [26] was 0.053 µg/mL. It also gave an IC50, pseudovirus neutralization [27] of over 50 µg/mL, an IC50, pseudovirus neutralization [30] of 0.104 µg/mL and an IC50 (µg/mL), pseudovirus neutralization [31] of 0.046 µg/mL.
Substance 4877_D15 (PGT-122) (antibody) has an IC50 neutralization [1] of 2.06 µg/mL, an IC50 neutralization [28] of 0.992 µg/mL and an IC50, pseudovirus neutralization [19] of over 50 µg/mL. The IC50 (µg/mL), pseudovirus neutralization [20] was over 50 µg/mL, the IC50 (µg/mL), pseudovirus neutralization [21] was 31.4 µg/mL and the IC50, pseudovirus neutralization [22] was 0.019 µg/mL. For the same substance, the IC50, pseudovirus neutralization [23] was over 50 µg/mL, the IC50 [24] was over 50 µg/mL and the IC50, pseudovirus neutralization [10] was over 10 µg/mL. The IC50, pseudovirus neutralization [25] was over 10 µg/mL, the IC50 (µg/mL), pseudovirus neutralization [26] was 0.154 µg/mL and the IC50, pseudovirus neutralization [27] was over 50 µg/mL. For the same substance, the IC50, pseudovirus neutralization [30] was over 10 µg/mL and the IC50 (µg/mL), pseudovirus neutralization [31] was 0.079 µg/mL.
Substance 4970_K22 (PGT-144) (antibody) has an IC50 (µg/mL), pseudovirus neutralization [32] of over 50 µg/mL, an IC50 (µg/mL), pseudovirus neutralization [6] of over 50 µg/mL and an IC50 (µg/mL), pseudovirus neutralization [15] of 7.92 µg/mL. It also gave an IC50 (µg/mL), pseudovirus neutralization [33] of over 50 µg/mL.
With 4980_N08 (PGT-143) (antibody) the IC50 (µg/mL), pseudovirus neutralization [32] was over 50 µg/mL, the IC50 (µg/mL), pseudovirus neutralization [6] was over 50 µg/mL and the IC50 (µg/mL), pseudovirus neutralization [15] was 0.048 µg/mL. The IC50 (µg/mL), pseudovirus neutralization [33] was over 50 µg/mL.
4993_K13 (PGT-141) (antibody) gave an IC50 (µg/mL), pseudovirus neutralization [32] of over 50 µg/mL, an IC50 (µg/mL), pseudovirus neutralization [6] of over 50 µg/mL and an IC50 (µg/mL), pseudovirus neutralization [15] of 0.051 µg/mL. For the same substance, the IC50 (µg/mL), pseudovirus neutralization [33] was over 50 µg/mL.
In the case of 4995_E20 (PGT-142) (antibody), the IC50 (µg/mL), pseudovirus neutralization [32] is reported as over 50 µg/mL, the IC50 (µg/mL), pseudovirus neutralization [6] is reported as over 50 µg/mL and the IC50 (µg/mL), pseudovirus neutralization [15] is reported as 0.054 µg/mL. The IC50 (µg/mL), pseudovirus neutralization [33] was over 50 µg/mL.
